Experimental data reported in patent publication US20190185537A1 (AstraZeneca / MedImmune, published 2019).
Numbered stars: 1 amine (or outer) side, 2 acyl side, 3 side chain; on linkers, the order of the positions; unused ones are H or OH. Side chains are listed from the residue outwards. Ends that are not written are not given here. * marks the point of attachment. γGlu = O=C(O)[C@H](CCC(=O)[*:2])N[*:1]; Palmitoyl = CCCCCCCCCCCCCCCC(=O)*

T1: human glucose-dependent insulinotropic peptide (gastric inhibitory polypeptide) receptor (human, UniProt P48546 22-466)
T1 sequence (looked up): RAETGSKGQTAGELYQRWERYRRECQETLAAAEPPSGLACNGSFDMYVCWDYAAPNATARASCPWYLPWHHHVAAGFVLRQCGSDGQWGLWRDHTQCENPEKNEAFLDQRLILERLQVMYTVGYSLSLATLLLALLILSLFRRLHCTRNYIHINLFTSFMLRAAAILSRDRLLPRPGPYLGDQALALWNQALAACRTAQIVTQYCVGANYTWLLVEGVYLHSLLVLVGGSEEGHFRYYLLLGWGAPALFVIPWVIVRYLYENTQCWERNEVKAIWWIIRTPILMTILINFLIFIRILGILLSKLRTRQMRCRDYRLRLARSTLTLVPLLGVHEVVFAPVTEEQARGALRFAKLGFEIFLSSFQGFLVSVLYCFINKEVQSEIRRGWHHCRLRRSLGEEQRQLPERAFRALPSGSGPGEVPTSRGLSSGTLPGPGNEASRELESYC


Columns and labels:
Experiment in all cases: cell-based or functional assay
[1] = biological target: T1, human glucose-dependent insulinotropic …
human GLP-1 receptor = human GLP-1 receptor (human, UniProt P43220 24-463)
human glucagon receptor = human glucagon receptor (human, UniProt P47871 26-477)
Chain of human glucagon receptor (P47871 26-477): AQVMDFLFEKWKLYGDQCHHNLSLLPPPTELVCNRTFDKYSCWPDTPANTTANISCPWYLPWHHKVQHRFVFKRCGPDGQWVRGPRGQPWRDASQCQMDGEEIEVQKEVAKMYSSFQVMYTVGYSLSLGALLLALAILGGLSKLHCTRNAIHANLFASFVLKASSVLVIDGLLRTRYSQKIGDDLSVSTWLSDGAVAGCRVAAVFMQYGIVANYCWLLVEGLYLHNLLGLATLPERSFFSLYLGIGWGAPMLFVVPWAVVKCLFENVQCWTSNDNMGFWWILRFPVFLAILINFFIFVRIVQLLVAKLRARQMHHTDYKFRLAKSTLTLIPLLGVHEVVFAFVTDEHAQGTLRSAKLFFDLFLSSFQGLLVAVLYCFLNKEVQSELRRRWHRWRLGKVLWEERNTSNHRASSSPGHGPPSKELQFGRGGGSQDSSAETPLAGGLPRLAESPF

cAMP EC50 (assay 1) [1] [nM] | cAMP EC50 (assay 1) (human GLP-1 receptor) [nM] | cAMP EC50 (assay 1) (human glucagon receptor) [nM] | Binder
3.6 | 0.018 | 0.0063 | HSQGTFTSDK([γGlu-Palmitoyl])SKYLEGQAAKEFIAWLEKGR-OH (N-terminus assumed; SMILES CCCCCCCCCCCCCCCC(=O)N[C@@H](CCC(=O)NCCCC[C@H](NC(=O)[C@H](CC(=O)O)NC(=O)[C@H](CO)NC(=O)[C@@H](NC(=O)[C@H](Cc1ccccc1)NC(=O)[C@@H](NC(=O)CNC(=O)[C@H](CCC(N)=O)NC(=O)[C@H](CO)NC(=O)[C@@H](N)Cc1c[nH]cn1)[C@@H](C)O)[C@@H](C)O)C(=O)N[C@@H](CO)C(=O)N[C@@H](CCCCN)C(=O)N[C@@H](Cc1ccc(O)cc1)C(=O)N[C@@H](CC(C)C)C(=O)N[C@@H](CCC(=O)O)C(=O)NCC(=O)N[C@@H](CCC(N)=O)C(=O)N[C@@H](C)C(=O)N[C@@H](C)C(=O)N[C@@H](CCCCN)C(=O)N[C@@H](CCC(=O)O)C(=O)N[C@@H](Cc1ccccc1)C(=O)N[C@H](C(=O)N[C@@H](C)C(=O)N[C@@H](Cc1c[nH]c2ccccc12)C(=O)N[C@@H](CC(C)C)C(=O)N[C@@H](CCC(=O)O)C(=O)N[C@@H](CCCCN)C(=O)NCC(=O)N[C@@H](CCCNC(=N)N)C(=O)O)[C@@H](C)CC)C(=O)O) [G934]
47 | 0.012 | 0.0089 | HSQGTFTSDK([γGlu-Palmitoyl])SSYLDSRSARDFVAWLEAGG-OH (N-terminus assumed; SMILES CCCCCCCCCCCCCCCC(=O)N[C@@H](CCC(=O)NCCCC[C@H](NC(=O)[C@H](CC(=O)O)NC(=O)[C@H](CO)NC(=O)[C@@H](NC(=O)[C@H](Cc1ccccc1)NC(=O)[C@@H](NC(=O)CNC(=O)[C@H](CCC(N)=O)NC(=O)[C@H](CO)NC(=O)[C@@H](N)Cc1c[nH]cn1)[C@@H](C)O)[C@@H](C)O)C(=O)N[C@@H](CO)C(=O)N[C@@H](CO)C(=O)N[C@@H](Cc1ccc(O)cc1)C(=O)N[C@@H](CC(C)C)C(=O)N[C@@H](CC(=O)O)C(=O)N[C@@H](CO)C(=O)N[C@@H](CCCNC(=N)N)C(=O)N[C@@H](CO)C(=O)N[C@@H](C)C(=O)N[C@@H](CCCNC(=N)N)C(=O)N[C@@H](CC(=O)O)C(=O)N[C@@H](Cc1ccccc1)C(=O)N[C@H](C(=O)N[C@@H](C)C(=O)N[C@@H](Cc1c[nH]c2ccccc12)C(=O)N[C@@H](CC(C)C)C(=O)N[C@@H](CCC(=O)O)C(=O)N[C@@H](C)C(=O)NCC(=O)NCC(=O)O)C(C)C)C(=O)O) [G973]
